Experimental data as given in patent US20090100532A1, “TRANSGENIC MICE EXPRESSING HYPERSENSITIVE NICOTINIC RECEPTORS” (CALIFORNIA INSTITUTE OF TECHNOLOGY, priority 2007, published 2009).

Tests used:
[1] = biological target: α4-CFP (mouse) (UniProt O70174); experiment: acceptor photobleaching FRET, N2a cells, untagged β2 coexpressed
[2] = biological target: CFP-labeled GluCl β subunit (UniProt Q17328); experiment: acceptor photobleaching FRET, N2a cells; specificity control
[3] = biological target: β2-CFP (mouse) (UniProt Q9ERK7); experiment: acceptor photobleaching FRET, N2a cells, within the same α4β2 pentamer
Chain of β2-CFP (mouse) (Q9ERK7 26-501): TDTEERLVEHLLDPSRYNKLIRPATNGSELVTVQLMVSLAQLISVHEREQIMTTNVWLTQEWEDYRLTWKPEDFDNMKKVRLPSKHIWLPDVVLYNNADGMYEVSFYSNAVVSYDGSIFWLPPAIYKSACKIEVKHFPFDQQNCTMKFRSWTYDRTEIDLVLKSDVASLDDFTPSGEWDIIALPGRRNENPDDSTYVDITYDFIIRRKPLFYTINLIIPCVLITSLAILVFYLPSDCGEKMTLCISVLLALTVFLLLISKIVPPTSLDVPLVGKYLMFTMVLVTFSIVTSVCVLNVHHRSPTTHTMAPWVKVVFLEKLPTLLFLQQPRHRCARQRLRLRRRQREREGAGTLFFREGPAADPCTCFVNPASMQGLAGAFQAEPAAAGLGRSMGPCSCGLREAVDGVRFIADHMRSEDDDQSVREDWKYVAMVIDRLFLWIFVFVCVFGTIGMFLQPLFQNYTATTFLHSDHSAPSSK

Chain of CFP-labeled GluCl β subunit (Q17328 23-434): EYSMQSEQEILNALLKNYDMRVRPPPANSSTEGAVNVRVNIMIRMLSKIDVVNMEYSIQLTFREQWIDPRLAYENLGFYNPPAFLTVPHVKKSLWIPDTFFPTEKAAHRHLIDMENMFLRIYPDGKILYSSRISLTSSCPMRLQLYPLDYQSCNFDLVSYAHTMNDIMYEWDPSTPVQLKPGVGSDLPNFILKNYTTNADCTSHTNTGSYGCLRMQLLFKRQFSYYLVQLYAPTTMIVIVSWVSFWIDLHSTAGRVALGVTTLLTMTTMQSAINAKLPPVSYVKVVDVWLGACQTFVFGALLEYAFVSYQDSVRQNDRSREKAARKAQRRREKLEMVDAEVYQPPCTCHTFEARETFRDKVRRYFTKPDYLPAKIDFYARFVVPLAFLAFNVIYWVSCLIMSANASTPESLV
Chain of β2-YFP (Q9ERK7 26-501): as the sequence (Q9ERK7 26-501) above
Chain of α4-YFP (O70174 31-629): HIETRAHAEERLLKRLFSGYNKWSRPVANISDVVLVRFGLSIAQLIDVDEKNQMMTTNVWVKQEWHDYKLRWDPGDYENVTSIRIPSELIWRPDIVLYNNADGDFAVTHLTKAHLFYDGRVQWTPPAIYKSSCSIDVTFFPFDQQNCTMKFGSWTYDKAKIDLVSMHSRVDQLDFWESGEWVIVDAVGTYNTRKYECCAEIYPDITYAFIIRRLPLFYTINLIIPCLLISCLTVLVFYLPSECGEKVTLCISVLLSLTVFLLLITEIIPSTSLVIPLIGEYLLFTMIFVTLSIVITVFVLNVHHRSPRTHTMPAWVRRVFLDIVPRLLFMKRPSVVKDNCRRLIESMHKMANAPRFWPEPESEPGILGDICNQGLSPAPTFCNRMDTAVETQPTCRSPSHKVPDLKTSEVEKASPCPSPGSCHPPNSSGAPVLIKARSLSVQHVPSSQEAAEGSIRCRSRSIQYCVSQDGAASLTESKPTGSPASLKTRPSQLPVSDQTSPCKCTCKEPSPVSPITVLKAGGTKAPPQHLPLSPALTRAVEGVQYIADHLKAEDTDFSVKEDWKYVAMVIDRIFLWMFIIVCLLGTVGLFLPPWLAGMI
Chain of α4-CFP (mouse) (O70174 31-629): as above

“α4-YFP (from UniProt O70174 31-629) (receptor)” gave an FRET E [1] of 22.2%.
“α6-YFP^A405 (from UniProt Q9R0W9 31-405; Q9R0W9 406-494) (receptor)” gave an FRET E [2] of 14%.
“β2-YFP (from UniProt Q9ERK7 26-501) (receptor)” was tested, and the FRET E [3] was 16.3%.
“β3-YFP^P379 (from UniProt Q8BMN3 31-379; Q8BMN3 380-464) (receptor)” gave an FRET E [2] of 6%.
